Test results reported in publication PMC5357957 (2017).

B1: HA-tagged HACE1 wild-type [human] / myc-Rac1 Q61L [not stated] (parent complex)
chain 1: MERAMEQLNRLTRSLRRARTVELPEDNETAVYTLMPMVMADQHRSVSELLSNSKFDVNYAFGRVKRSLLHIAANCGSVECLVLLLKKGANPNYQDISGCTPLHLAARNGQKKCMSKLLEYSADVNICNNEGLTAIHWLAVNGRTELLHDLVQHVSDVDVEDAMGQTALHVACQNGHKTTVQCLLDSGADINRPNVSGATPLYFACSHGQRDTAQILLLRGAKYLPDKNGVTPLDLCVQGGYGETCEVLIQYHPRLFQTIIQMTQNEDLRENMLRQVLEHLSQQSESQYLKILTSLAEVATTNGHKLLSLSSNYDAQMKSLLRIVRMFCHVFRIGPSSPSNGIDMGYNGNKTPRSQVFKPLELLWHSLDEWLVLIATELMKNKRDSTEITSILLKQKGQDQDAASIPPFEPPGPGSYENLSTGTRESKPDALAGRQEASADCQDVISMTANRLSAVIQAFYMCCSCQMPPGMTSPRFIEFVCKHDEVLKCFVNRNPKIIFDHFHFLLECPELMSRFMHIIKAQPFKDRCEWFYEHLHSGQPDSDMVHRPVNENDILLVHRDSIFRSSCEVVSKANCAKLKQGIAVRFHGEEGMGQGVVREWFDILSNEIVNPDYALFTQSADGTTFQPNSNSYVNPDHLNYFRFAGQILGLALNHRQLVNIYFTRSFYKHILGIPVNYQDVASIDPEYAKNLQWILDNDISDLGLELTFSVETDVFGAMEEVPLKPGGGSILVTQNNKAEYVQLVTELRMTRAIQPQINAFLQGFHMFIPPSLIQLFDEYELELLLSGMPEIDVSDWIKNTEYTSGYEREDPVIQWFWEVVEDITQEERVLLLQFVTGSSRVPHGGFANIMGGSGLQNFTIAAVPYTPNLLPTSSTCINMLKLPEYPSKEILKDRLLVALHCGSYGYTMA
chain 2: not shown

Variants of: B1
Test: co-immunoprecipitation (anti-myc IP), quantified; cells co-transfected with myc-Rac1 Q61L and HA-tagged HACE1 mutants; n ≥ 4 biological replicates; parent: 1; read off a plot

Variant	ratio to parent
chain 1 G175S	~0.18
chain 1 V140A	~3.2
chain 1 V140L	~0.55

Results, then the variant that gave them:

ratio to parent	Variant
~0.14	chain 1 G175C
~0.26	chain 1 N174A
~2.3	chain 1 M114V
~0.11	chain 1 A204T
~0.28	chain 1 Q173A
